Source: patent US20080311122A1 (AstraZeneca / MedImmune, published 2008)
No end group written: not given here.

How the values were obtained:
[1] = molecular target: T1, activated HMG1 prepared from LPS stimulated THP-1 cells (human, UniProt P09429 1-215); assay: cell-based or functional assay
T1 sequence (looked up): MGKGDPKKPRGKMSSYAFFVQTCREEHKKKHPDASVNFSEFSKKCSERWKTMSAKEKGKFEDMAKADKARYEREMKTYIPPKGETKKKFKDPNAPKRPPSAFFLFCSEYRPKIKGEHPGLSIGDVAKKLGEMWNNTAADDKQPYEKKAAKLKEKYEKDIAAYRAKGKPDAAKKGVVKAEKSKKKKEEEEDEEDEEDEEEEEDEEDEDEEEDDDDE

[2] = molecular target: T2, HMGB1 C-terminal tail peptide 188-215 (human, biotinylated); assay: ELISA, biotinylated peptides on avidin plate
T2 peptide: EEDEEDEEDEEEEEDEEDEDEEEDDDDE
Protocol: (§1) The plate was then blocked with 4% milk powder dissolved in PBS at 37° C. for 1 hour. The blocking solution was removed and replaced with human anti-HMG1 antibodies at various concentrations (see FIGS. 5A-B). […] HRP activity was detected with Sureblue HRP substrate (KPL). Plates were read at 450 nm using a Kinetic Microplate Reader (Molecular Devices). […] After washing and blocking with 1% BSA in PBS, the biotinylated peptides were individually added into the avidin coated wells and incubated for 30 min at room temperature. The serial diluted antibody G4, S16 and S6 at the initial concentration at 10 μg/ml were then transferred into the wells followed by adding mouse anti human IgG-HRP conjugate (Pierce). Detection was accomplished by adding 50 μl of tetramethylbenzidine (TMB) substrate (KPL) and the absorbance was read at […].

[3] = molecular target: T3, HMGB1 B-box peptide 108-138 (UniProt P09429 108-138, biotinylated); assay: ELISA, biotinylated peptides on avidin plate
T3 peptide (looked up): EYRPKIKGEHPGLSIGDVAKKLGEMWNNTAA
Protocol: as §1

106-123 = molecular target: T4, 106-123 (also: biotinylated, site not given here); assay: ELISA on biotinylated HMGB1 peptides captured on NeutrAvidin, antibody in serial dilution from 10 ug/ml, anti-human IgG-HRP, OD 450
T4 construct: Bar group label on the sheet
T4 peptide: CSEYRPKIKGEHPGLSIG
Protocol: as §1

[4] = molecular target: T5, HMGB1 in sera of septic peritonitis mice (mouse, UniProt P63158 1-215); assay: sandwich ELISA: antibody (10 ug/ml) captured on anti-human Fc, sample added, mouse anti-HMGB1 and anti-mouse-HRP, OD 450
T5 construct: also called HMGB1 from sepsis sera (ELISA); peritonitis sera
T5 sequence (looked up): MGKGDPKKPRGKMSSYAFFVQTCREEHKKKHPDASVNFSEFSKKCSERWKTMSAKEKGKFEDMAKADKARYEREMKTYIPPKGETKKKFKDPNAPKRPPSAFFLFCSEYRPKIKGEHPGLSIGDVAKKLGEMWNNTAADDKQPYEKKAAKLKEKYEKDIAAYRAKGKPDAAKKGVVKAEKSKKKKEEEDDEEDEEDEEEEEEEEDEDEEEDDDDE
Protocol: HMGB1 Detection from Biological Samples: For detection of the HMGB1 from AA joint homogenates and peritonitis sera, sandwich ELISA was performed. Goat anti-human Fc (Pierce) 14 μg/ml in PBS was coated on Immunlon IV microtiter plate over night at 4° C. After washing and blocking with 5% milk 1 hr at room temperature, G4 or S6 in blocking buffer (10 μg/ml) were added to each well of the blocked plate. The plate was washed 1 hour later and 25 μl of AIA homogenates containing 0.8 μg/ml of HMGB1 or peritonitis sera containing 7 μg/ml of HMGB1 in 0.5 M NaCl/blocking buffer were added to the wells at two fold serial dilutions. The unbound materials were removed by washing one hr after incubation. The bound HMGB1 was detected by a mouse anti-HMGB1 antibody at 2 μg/ml followed by an anti-mouse antibody conjugated with horseradish peroxidase. Mouse peritonitis sera was obtained by heart puncture 7 days after infection with heat killed staphylococcus aureus. Joint lysate was prepared from the whole paw of AIA rats as described in Example 6 below. Human sepsis sera were purchased from a commercial source.

[5] = molecular target: T6, native nuclear HMG1 prepared from 293H cells by freeze thaw (human, UniProt P09429 1-215); assay: sandwich ELISA: antibody captured on anti-human IgG Fc, native HMGB1 0.7 ug/ml in solution, mouse anti-HMGB1 and anti-mouse IgG-HRP, OD 450
T6 construct: unpurified cell lysate supernatant
T6 sequence (looked up): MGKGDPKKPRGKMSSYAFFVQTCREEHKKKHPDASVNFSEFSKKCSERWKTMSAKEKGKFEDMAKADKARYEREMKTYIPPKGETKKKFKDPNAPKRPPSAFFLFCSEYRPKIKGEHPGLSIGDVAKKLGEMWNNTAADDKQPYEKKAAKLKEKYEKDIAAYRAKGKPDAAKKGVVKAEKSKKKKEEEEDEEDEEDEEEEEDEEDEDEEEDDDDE
Protocol: Sandwich ELISA (soluble HMG1): Immunoplates (EIA/RIA plate, High binding, Costar) were coated with anti human IgG Fc at 10 μg/ml in PBS (pH 7.2) and incubated at 4° C. overnight. The coating reagent was removed and the plates were rinsed briefly with PBS. The plates were then blocked with 4% milk for 1 hour at 37° C. and rinsed with PBS. The anti-HMG1 antibodies were diluted in 4% milk. For serial dilutions, the antibodies were used at a starting concentration of 20 μg/ml. The diluted anti-HMG1 antibodies were then added into plate and incubated for 1 hr at 37° C. The plate was then washed 10 times with PBST (PBS/0.1% tween 20) and incubate with antigen (HMGB1, 2 μg/ml; or 0.7 μg/ml for native HMGB1) in 4% milk and incubated at 37° C. for 1 h. The plate was then wash 10 times and incubated with mouse anti-HMGB1, 1 μg/ml in 4% milk at 37° C. for 1 h. The plate was washed 10 times and incubated with anti-mouse IgG-HRP at 1:1000 at 37° C. for 1 h. The plate was then washed and developed. HRP activity was detected with Sureblue HRP substrate (KPL). Plates were read at 450 nm using a Kinetic Microplate Reader (Molecular Devices).

B1: anti-HMG1 antibody S16 (antibody, V domains shown)
VH: EVQLLESGGGLVQPGGSLRLSCAASGFTFSWYSMLWVRQAPGKGLEWVSYISPSGGFTNYADSVKGRFTISRDNSKNTLYLQMNSLRAEDTAVYYCARWDYNSGWYYDHWGQGTLVTVSS
VL: DIQMTQSPDTLSLSPGERATLSCRASQSVNSRNLAWYQQKPGQAPRLLIYGASTRATGIPDRFSGSVSGTEFTLTISSLQPDDFATYYCQQYNSYFTFGQGTKLEIK
notes: also called ATCC PTA-6259
B1 was tested, and the “IC50, inhibition of native activated HMG1 stimulated IL-6 release from human PBMC” value [1] was 38.9 nM.

B2: anti-HMG1 antibody G4 (antibody, V domains shown)
VH: EVQLLESGGGLVQPGGSLRLSCAASGFTFSWYDMTWVRQAPGKGLEWVSSISPSGGYTKYADSVKGRFTISRDNSKNTLYLQMNSLRAEDTAVYYCTTEFYDYLDVWGKGTTVTVSS
VL: DIQMTQSPGTLSLSPGEGATLSCRASQSVSSTYLAWYQQKPGQAPRLLIYEASKRATGTPARFSGSGSGTDFTLSISSLEPEDFAVYYCQHRHNWPPQWTFGQGTKVEVK
notes: also called ATCC PTA-6258
B2: binds [2]; binds [3]; binds (106-123).

B3: anti-HMG1 antibody S6 (antibody, V domains shown)
VH: EVQLLESGGGLVQPGGSLRLSCAASGFTFSWYDMSWVRQAPGKGLEWVSRISPSGGYTMYADSVKGRFTISRDNSKNTLYLQMNSLRAEDTAVYYCARLEVGATSGGTAFDIWGQGTMVTVSS
VL: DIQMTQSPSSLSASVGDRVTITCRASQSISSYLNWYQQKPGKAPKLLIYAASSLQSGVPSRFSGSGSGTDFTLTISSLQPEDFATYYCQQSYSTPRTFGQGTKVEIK
notes: also called ATCC PTA-6143
B3: binds [4].

B4: anti-HMG1 antibody S2 (antibody, V domains shown)
VH: EVQLLESGGGLVQPGGSLRLSCAASGFTFSGYMMVWVRQAPGKGLEWVSRISPSGGQTGYADSVKGRFTISRDNSKNTLYLQMNSLRAEDTAVYYCAREEGGSYGAFDIWGQGTMVTVSS
VL: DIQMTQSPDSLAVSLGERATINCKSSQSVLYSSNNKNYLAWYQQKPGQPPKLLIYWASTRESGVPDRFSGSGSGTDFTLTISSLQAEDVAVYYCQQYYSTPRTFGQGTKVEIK
notes: also called ATCC PTA-6142
In the case of B4, the “EC50 (read off the curve)” value [5] is reported as about 0.8 µg/mL.
